Data on two proteins can be found in article PMC11758952, “A kinetic model for compound heterozygous pathogenic variants in Tyrosyl-tRNA synthetase gene YARS2-Associated neonatal phenotype” (The Journal of Biological Chemistry, 2024).

The data set concerns the molecule itself. Description: native gel or EMSA; native 8% PAGE of the unlinked enzyme (20 ug), 0.75 M Tris pH 8.8, 4 °C, 90 V for 3 h, Western blot (anti-His, anti-mt-TyrRS).

B1: human mitochondrial tyrosyl-tRNA synthetase (mt-TyrRS), WT/WT unlinked homodimer (enzyme, UniProt Q9Y2Z4 17-477, looked up)
chain: TLNLSVLLPLGLRKAHSGAQGLLAAQKARGLFKDFFPETGTKIELPELFDRGTASFPQTIYCGFDPTADSLHVGHLLALLGLFHLQRAGHNVIALVGGATARLGDPSGRTKEREALETERVRANARALRLGLEALAANHQQLFTDGRSWGSFTVLDNSAWYQKQHLVDFLAAVGGHFRMGTLLSRQSVQLRLKSPEGMSLAEFFYQVLQAYDFYYLFQRYGCRVQLGGSDQLGNIMSGYEFINKLTGEDVFGITVPLITSTTGAKLGKSAGNAVWLNRDKTSPFELYQFFVRQPDDSVERYLKLFTFLPLPEIDHIMQLHVKEPERRGPQKRLAAEVTKLVHGREGLDSAKRCTQALYHSSIDALEVMSDQELKELFKEAPFSEFFLDPGTSVLDTCRKANAIPDGPRGYRMITEGGVSINHQQVTNPESVLIVGQHILKNGLSLLKIGKRNFYIIKWLQL
notes: Construct provided by R. Giege; also called YARS2 enzyme; not shown: His-tag, C-terminal, kept
As for B1, the binding result is recorded as “binds”.

B2: human mitochondrial tyrosyl-tRNA synthetase F185L, F185L/F185L unlinked homodimer (enzyme, UniProt Q9Y2Z4 17-477, looked up)
chain: TLNLSVLLPLGLRKAHSGAQGLLAAQKARGLFKDFFPETGTKIELPELFDRGTASFPQTIYCGFDPTADSLHVGHLLALLGLFHLQRAGHNVIALVGGATARLGDPSGRTKEREALETERVRANARALRLGLEALAANHQQLFTDGRSWGSFTVLDNSAWYQKQHLVDLLAAVGGHFRMGTLLSRQSVQLRLKSPEGMSLAEFFYQVLQAYDFYYLFQRYGCRVQLGGSDQLGNIMSGYEFINKLTGEDVFGITVPLITSTTGAKLGKSAGNAVWLNRDKTSPFELYQFFVRQPDDSVERYLKLFTFLPLPEIDHIMQLHVKEPERRGPQKRLAAEVTKLVHGREGLDSAKRCTQALYHSSIDALEVMSDQELKELFKEAPFSEFFLDPGTSVLDTCRKANAIPDGPRGYRMITEGGVSINHQQVTNPESVLIVGQHILKNGLSLLKIGKRNFYIIKWLQL
notes: Paternally inherited variant of the patient; also called p.F185L; not shown: His-tag, C-terminal, kept
Take B2: the binding result was “binds”.
